{
  "source": "paper PMC8861115",
  "about": "“Characterization and structural analyses of a novel glycosyltransferase acting on the β-1,2-glucosidic linkages” (The Journal of Biological Chemistry, 2022)",
  "proteins": {"B1": {"name": "IaSGT (IALB_1185) (Ignavibacterium album JCM 16511) (protein)", "chain": "MKPHNSEKYFVKNGQPHFLISGEVHYFRINPKLWRNHLQLLKQTGADTVSTYIPWDWHEIEEDDFDFEGKTHPARNLIRFIKLCKEENLDLIVKPGPYILAEYENQGLPSWLLKKLSKNAFALDENGNVISPDLVSYLSDEFLEYTFKWYDKVMPIISKHQKEHYGPITMMQLCNEIGVFQWLSGKSDYNPKVINLYKEFIIQRYKTIEKLNSVYSTNYNSFDDLKAPSGKIKLRSDYCAYFDFHLFFREYYNKYISILKNKIRSFGINIKLTHNIPGWIYGNASELPMLISTYSEIMKNHPDIIFGLDHIPEFVSFRNAHSDLACNKILEAMQPEAPVWAAEFQAGTREHHVKAYAKDLETFYIASLAHGIKGFNYYMFSQGINPEGKGFYGKTFYFQTALDAASNKLALYDSIKKVNRFIRKEQKDLLRTNVNSEICVGFYKPYFFTELISSQLLKEKKLNVEELGLYIDPRFLREEILFNGLLRGLQTLNYNYDVVDLENCDLKSLTAYKQLWITSAEFMDAETQNLLSEFVLNGGNLILYPAVPTLDNYLNRCEILKNNFGIEFITKDSSHKVSAFGIEDVFTAFSKKQIYNDTNSKPIAFTQENEICGIRKKIGKGELTILGFAFGYTSDEHLELIDKLVKLNKIKRELFVSDKDIQFVVRENNKSRYIFFLNYHNERKTFNYRKSSELKKKKSEEISIAPFSYKVIKENK", "notes": "full length (no N-terminal signal peptide), his6-tag fusion from pET30a(+) NdeI/XhoI, E. coli BL21(DE3); homodimer"}},
  "conditions_in_all_cases": "acceptor, donor Sop2 fixed 1 mM, pH 5.0, 37 °C",
  "key": {"[1]": {"substrate": "OCc1ccccc1O[C@@H]1O[C@H](CO)[C@@H](O)[C@H](O)[C@H]1O", "assay": "hexokinase/G6PDH thio-NAD+ coupled glucose release", "type": "biochemical, Ignavibacterium album", "text": "(§1) hexokinase/G6PDH thio-NAD+ coupled glucose release on IaSGT (IALB_1185)"}, "[2]": {"substrate": "OCc1ccc(O[C@@H]2O[C@H](CO)[C@@H](O)[C@H](O)[C@H]2O)cc1", "assay": "hexokinase/G6PDH thio-NAD+ coupled glucose release", "type": "biochemical, Ignavibacterium album", "text": "as §1"}, "[3]": {"substrate": "OC[C@H]1O[C@H](OCc2ccccc2)[C@H](O)[C@@H](O)[C@@H]1O", "assay": "hexokinase/G6PDH thio-NAD+ coupled glucose release", "type": "biochemical, Ignavibacterium album", "text": "as §1"}, "[4]": {"substrate": "CO[C@@H]1O[C@H](CO)[C@@H](O)[C@H](O)[C@H]1O", "assay": "hexokinase/G6PDH thio-NAD+ coupled glucose release", "type": "biochemical, Ignavibacterium album", "text": "as §1"}, "[5]": {"substrate": "OC[C@H]1O[C@H](Oc2ccccc2)[C@H](O)[C@@H](O)[C@@H]1O", "assay": "hexokinase/G6PDH thio-NAD+ coupled glucose release", "type": "biochemical, Ignavibacterium album", "text": "as §1"}, "[6]": {"substrate": "OC[C@H]1O[C@H](Oc2ccc3ccccc3c2)[C@H](O)[C@@H](O)[C@@H]1O", "assay": "hexokinase/G6PDH thio-NAD+ coupled glucose release", "type": "biochemical, Ignavibacterium album", "text": "as §1"}, "[7]": {"substrate": "CCO[C@H]1O[C@H](CO)[C@@H](O)[C@H](O)[C@H]1O", "assay": "hexokinase/G6PDH thio-NAD+ coupled glucose release", "type": "biochemical, Ignavibacterium album", "text": "as §1"}, "[8]": {"substrate": "O=c1ccc2cc(O[C@@H]3O[C@H](CO)[C@@H](O)[C@H](O)[C@H]3O)c(O)cc2o1", "assay": "hexokinase/G6PDH thio-NAD+ coupled glucose release", "type": "biochemical, Ignavibacterium album", "text": "as §1"}, "[9]": {"substrate": "OC[C@H]1O[C@@H](Oc2ccc(O)cc2)[C@H](O)[C@@H](O)[C@@H]1O", "assay": "hexokinase/G6PDH thio-NAD+ coupled glucose release", "type": "biochemical, Ignavibacterium album", "text": "as §1"}, "[10]": {"substrate": "CO[C@H]1O[C@H](CO)[C@@H](O)[C@H](O)[C@H]1O", "assay": "hexokinase/G6PDH thio-NAD+ coupled glucose release", "type": "biochemical, Ignavibacterium album", "text": "as §1"}, "[11]": {"substrate": "OC[C@H]1O[C@H](Oc2ccc(O)cc2)[C@H](O)[C@@H](O)[C@@H]1O", "assay": "hexokinase/G6PDH thio-NAD+ coupled glucose release", "type": "biochemical, Ignavibacterium album", "text": "as §1"}, "[12]": {"substrate": "O=[N+]([O-])c1ccc(O[C@H]2O[C@H](CO)[C@@H](O)[C@H](O)[C@H]2O)cc1", "assay": "purified protein"}, "[13]": {"substrate": "O=[N+]([O-])c1ccc(O[C@@H]2O[C@H](CO)[C@@H](O)[C@H](O)[C@H]2O)cc1", "assay": "purified protein"}},
  "data": [
    {"protein": "B1", "values": [
      {"measurement": "Km", "setting": "[1]", "value": "21 ± 3", "unit": "µM"},
      {"measurement": "kcat", "setting": "[1]", "value": "0.88 ± 0.03", "unit": "s⁻¹"},
      {"measurement": "kcat/Km", "setting": "[1]", "value": "43000 ± 1000", "unit": "M⁻¹ s⁻¹"},
      {"measurement": "Km", "setting": "[2]", "value": "42 ± 4", "unit": "µM"},
      {"measurement": "kcat", "setting": "[2]", "value": "0.49 ± 0.02", "unit": "s⁻¹"},
      {"measurement": "kcat/Km", "setting": "[2]", "value": "12000 ± 1000", "unit": "M⁻¹ s⁻¹"},
      {"measurement": "Km", "setting": "[3]", "value": "96 ± 11", "unit": "µM"},
      {"measurement": "kcat", "setting": "[3]", "value": "0.86 ± 0.05", "unit": "s⁻¹"},
      {"measurement": "kcat/Km", "setting": "[3]", "value": "9000 ± 700", "unit": "M⁻¹ s⁻¹"},
      {"measurement": "Km", "setting": "[4]", "value": "130 ± 30", "unit": "µM"},
      {"measurement": "kcat", "setting": "[4]", "value": "1.9 ± 0.2", "unit": "s⁻¹"},
      {"measurement": "kcat/Km", "setting": "[4]", "value": "14000 ± 2000", "unit": "M⁻¹ s⁻¹"},
      {"measurement": "Km", "setting": "[5]", "value": "220 ± 30", "unit": "µM"},
      {"measurement": "kcat", "setting": "[5]", "value": "1.8 ± 0.2", "unit": "s⁻¹"},
      {"measurement": "kcat/Km", "setting": "[5]", "value": "8100 ± 600", "unit": "M⁻¹ s⁻¹"},
      {"measurement": "Km", "setting": "[6]", "value": "150 ± 30", "unit": "µM"},
      {"measurement": "kcat", "setting": "[6]", "value": "3.9 ± 0.3", "unit": "s⁻¹"},
      {"measurement": "kcat/Km", "setting": "[6]", "value": "26000 ± 3000", "unit": "M⁻¹ s⁻¹"},
      {"measurement": "Km", "setting": "[7]", "value": "44 ± 5", "unit": "µM"},
      {"measurement": "kcat", "setting": "[7]", "value": "0.55 ± 0.02", "unit": "s⁻¹"},
      {"measurement": "kcat/Km", "setting": "[7]", "value": "13000 ± 1000", "unit": "M⁻¹ s⁻¹"},
      {"measurement": "Km", "setting": "[8]", "value": "45 ± 6", "unit": "µM"},
      {"measurement": "kcat", "setting": "[8]", "value": "1.3 ± 0.1", "unit": "s⁻¹"},
      {"measurement": "kcat/Km", "setting": "[8]", "value": "29000 ± 1000", "unit": "M⁻¹ s⁻¹"},
      {"measurement": "Km", "setting": "[9]", "value": "26 ± 3", "unit": "µM"},
      {"measurement": "kcat", "setting": "[9]", "value": "1.4 ± 0.1", "unit": "s⁻¹"},
      {"measurement": "kcat/Km", "setting": "[9]", "value": "55000 ± 5000", "unit": "M⁻¹ s⁻¹"},
      {"measurement": "Km", "setting": "[10]", "value": "200 ± 30", "unit": "µM"},
      {"measurement": "kcat", "setting": "[10]", "value": "1 ± 0.1", "unit": "s⁻¹"},
      {"measurement": "kcat/Km", "setting": "[10]", "value": "4900 ± 400", "unit": "M⁻¹ s⁻¹"},
      {"measurement": "Km", "setting": "[11]", "value": "380 ± 50", "unit": "µM"},
      {"measurement": "kcat", "setting": "[11]", "value": "8.7 ± 0.6", "unit": "s⁻¹"},
      {"measurement": "kcat/Km", "setting": "[11]", "value": "23000 ± 2000", "unit": "M⁻¹ s⁻¹"},
      {"measurement": "Km", "setting": "[12]", "value": "130 ± 20", "unit": "µM"},
      {"measurement": "kcat", "setting": "[12]", "value": 5, "unit": "s⁻¹"},
      {"measurement": "kcat/Km", "setting": "[12]", "value": 39000, "unit": "M⁻¹ s⁻¹"},
      {"measurement": "Km", "setting": "[13]", "value": "40 ± 4", "unit": "µM"},
      {"measurement": "kcat", "setting": "[13]", "value": 0.46, "unit": "s⁻¹"},
      {"measurement": "kcat/Km", "setting": "[13]", "value": 12000, "unit": "M⁻¹ s⁻¹"}
    ]}
  ]
}
